{"source": "patent US20060115897A1", "key": {"C3b": {"target": "C3b (UniProt P01024)", "sequence (P01024 749-1663 limits assumed, chain 1 of 2)": "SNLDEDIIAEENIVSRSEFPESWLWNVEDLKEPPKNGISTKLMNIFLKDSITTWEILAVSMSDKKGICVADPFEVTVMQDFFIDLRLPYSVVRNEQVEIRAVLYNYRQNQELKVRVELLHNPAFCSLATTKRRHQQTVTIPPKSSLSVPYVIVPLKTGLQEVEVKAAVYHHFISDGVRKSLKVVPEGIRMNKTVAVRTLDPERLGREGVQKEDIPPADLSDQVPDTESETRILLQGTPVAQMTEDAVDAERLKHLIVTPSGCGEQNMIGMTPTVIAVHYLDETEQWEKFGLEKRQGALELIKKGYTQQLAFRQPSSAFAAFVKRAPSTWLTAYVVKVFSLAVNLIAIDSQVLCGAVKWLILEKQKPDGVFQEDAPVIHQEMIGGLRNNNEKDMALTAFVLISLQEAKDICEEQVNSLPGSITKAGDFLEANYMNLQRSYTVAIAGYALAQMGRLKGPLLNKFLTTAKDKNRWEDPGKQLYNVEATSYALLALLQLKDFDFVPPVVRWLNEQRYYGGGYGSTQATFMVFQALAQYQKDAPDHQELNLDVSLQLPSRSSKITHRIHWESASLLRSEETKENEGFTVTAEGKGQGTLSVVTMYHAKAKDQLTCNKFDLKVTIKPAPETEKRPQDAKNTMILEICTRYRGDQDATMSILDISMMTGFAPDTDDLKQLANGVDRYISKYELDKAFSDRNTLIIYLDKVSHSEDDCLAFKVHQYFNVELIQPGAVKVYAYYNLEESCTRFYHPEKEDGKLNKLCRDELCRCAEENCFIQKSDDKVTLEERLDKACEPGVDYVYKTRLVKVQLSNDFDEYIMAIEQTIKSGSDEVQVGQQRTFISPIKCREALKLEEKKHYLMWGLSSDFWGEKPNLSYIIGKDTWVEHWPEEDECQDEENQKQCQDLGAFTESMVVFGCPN", "sequence (P01024 23-667 limits assumed, chain 2 of 2)": "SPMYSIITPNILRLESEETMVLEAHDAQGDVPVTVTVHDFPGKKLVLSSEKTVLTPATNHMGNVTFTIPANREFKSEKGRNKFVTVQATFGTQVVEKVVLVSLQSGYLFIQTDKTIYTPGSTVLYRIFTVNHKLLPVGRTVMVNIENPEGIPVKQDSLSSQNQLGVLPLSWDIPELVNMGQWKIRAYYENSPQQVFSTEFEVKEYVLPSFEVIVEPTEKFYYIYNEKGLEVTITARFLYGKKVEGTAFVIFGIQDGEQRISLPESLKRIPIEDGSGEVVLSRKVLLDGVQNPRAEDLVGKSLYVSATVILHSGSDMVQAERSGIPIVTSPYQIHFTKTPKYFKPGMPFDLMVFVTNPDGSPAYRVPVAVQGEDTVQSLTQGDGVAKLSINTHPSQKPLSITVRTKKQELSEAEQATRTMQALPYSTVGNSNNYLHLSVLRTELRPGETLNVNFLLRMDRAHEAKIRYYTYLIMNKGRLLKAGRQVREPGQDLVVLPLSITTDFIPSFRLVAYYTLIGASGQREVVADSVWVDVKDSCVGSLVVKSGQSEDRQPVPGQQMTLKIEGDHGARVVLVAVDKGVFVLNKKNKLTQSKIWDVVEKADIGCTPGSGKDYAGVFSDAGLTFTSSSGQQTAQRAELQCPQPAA", "assay": "cell-based or functional assay"}, "C4b": {"target": "C4b (UniProt P0C0L4)", "sequence (P0C0L4 20-1744)": "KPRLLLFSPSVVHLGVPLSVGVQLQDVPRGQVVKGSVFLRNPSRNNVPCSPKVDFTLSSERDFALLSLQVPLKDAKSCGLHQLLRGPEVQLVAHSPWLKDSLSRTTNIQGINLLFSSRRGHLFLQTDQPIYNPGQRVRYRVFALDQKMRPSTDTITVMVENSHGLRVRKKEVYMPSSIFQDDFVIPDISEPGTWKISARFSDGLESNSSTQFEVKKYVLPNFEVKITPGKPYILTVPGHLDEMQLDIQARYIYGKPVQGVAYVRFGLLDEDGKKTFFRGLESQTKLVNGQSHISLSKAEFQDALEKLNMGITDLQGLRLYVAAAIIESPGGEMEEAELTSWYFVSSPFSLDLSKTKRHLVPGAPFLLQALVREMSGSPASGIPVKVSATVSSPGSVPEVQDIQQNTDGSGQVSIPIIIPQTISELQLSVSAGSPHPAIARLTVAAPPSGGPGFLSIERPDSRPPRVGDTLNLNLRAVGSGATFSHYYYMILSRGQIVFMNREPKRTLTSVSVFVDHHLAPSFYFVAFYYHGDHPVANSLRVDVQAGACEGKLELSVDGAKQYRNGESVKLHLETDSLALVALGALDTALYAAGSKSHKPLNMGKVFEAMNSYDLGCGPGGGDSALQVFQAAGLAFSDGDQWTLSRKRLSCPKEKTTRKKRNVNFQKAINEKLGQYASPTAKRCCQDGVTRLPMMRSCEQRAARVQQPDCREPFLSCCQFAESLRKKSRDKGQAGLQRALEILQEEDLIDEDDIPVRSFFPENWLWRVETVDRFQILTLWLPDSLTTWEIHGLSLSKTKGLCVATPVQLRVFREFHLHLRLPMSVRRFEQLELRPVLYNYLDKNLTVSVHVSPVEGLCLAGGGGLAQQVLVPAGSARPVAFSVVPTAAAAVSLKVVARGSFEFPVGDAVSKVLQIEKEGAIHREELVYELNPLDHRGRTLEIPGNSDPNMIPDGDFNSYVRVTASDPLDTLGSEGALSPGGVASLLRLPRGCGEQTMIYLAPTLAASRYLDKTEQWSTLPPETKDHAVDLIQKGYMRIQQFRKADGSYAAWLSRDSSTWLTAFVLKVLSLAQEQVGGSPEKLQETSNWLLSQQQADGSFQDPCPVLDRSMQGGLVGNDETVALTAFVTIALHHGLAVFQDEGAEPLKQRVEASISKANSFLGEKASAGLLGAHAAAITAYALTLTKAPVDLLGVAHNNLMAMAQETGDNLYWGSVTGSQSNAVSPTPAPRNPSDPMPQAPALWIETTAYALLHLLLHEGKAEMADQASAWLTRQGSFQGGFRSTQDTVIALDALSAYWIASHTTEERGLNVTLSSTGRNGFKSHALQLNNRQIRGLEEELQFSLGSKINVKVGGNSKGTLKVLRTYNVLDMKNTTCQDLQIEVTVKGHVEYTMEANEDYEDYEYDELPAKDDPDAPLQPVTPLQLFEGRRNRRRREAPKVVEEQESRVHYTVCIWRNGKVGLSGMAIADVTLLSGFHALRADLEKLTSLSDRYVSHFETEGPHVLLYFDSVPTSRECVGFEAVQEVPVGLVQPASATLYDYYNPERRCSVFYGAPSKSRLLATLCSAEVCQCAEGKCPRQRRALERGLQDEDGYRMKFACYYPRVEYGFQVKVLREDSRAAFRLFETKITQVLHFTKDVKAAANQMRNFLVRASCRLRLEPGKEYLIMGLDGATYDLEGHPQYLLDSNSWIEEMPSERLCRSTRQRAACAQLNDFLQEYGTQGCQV", "assay": "cell-based or functional assay"}}, "data": [{"substance": "histidine-tagged Smallpox Inhibitor of Complement Enzymes (SPICEhis) (from UniProt P68638 20-263)", "values": [{"measurement": "efficiency as cofactor in the degradation of C3b, against VCPhis", "setting": "C3b", "result": 100, "unit": "fold"}, {"measurement": "speed as cofactor in the degradation of C4b, against VCPhis", "setting": "C4b", "result": 6, "unit": "fold"}]}]}
